According to article PMC9304885:

Target: recombinant M. hyopneumoniae mhp390 (rMhp390) (Mycoplasma hyopneumoniae)
Experiment: BLI; ForteBio Octet Red96; biotinylated rMhp390 immobilised on streptavidin (SA) biosensors, rNOD1 in solution; PBST (PBS, 0.02% Tween20); association 300 s, dissociation 600 s; 1:1 binding model

Substance: recombinant NOD1 (rNOD1), nucleotide-binding oligomerization domain 1 (receptor)
- Kd: 8.14 µM
